Data published in patent publication US20240117043A1 (SHANGHAI JUNSHI BIOSCIENCES, published 2024).

T1: recombinant human HX1 hCD112R Fc (human, UniProt Q6DKI7 41-171, limits assumed)
T1 construct: Coated antigen of the ELISA (Suzhou Junmeng); also called human CD112R; not shown: Fc part
T1 sequence (looked up): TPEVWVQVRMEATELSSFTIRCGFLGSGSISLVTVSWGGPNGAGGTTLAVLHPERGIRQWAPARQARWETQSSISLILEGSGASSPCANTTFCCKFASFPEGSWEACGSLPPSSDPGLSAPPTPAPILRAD

T2: recombinant human TIGIT (His Tag) (human, UniProt Q495A1 22-141)
T2 construct: Coated antigen of the ELISA; not shown: His tag
T2 sequence (looked up): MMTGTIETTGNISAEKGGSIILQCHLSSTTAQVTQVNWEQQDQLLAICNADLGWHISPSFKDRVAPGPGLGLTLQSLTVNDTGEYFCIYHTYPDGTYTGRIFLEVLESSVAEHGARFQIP

B1: bispecific antibody JS-3 (IgG4) (bispecific antibody)
chain 1: not shown
chain 2: DIVMTQSPDSLAVSLGERATINCKASQSVSNDVAWYQQKPGQPPKLLIYYVSHRFTGVPDRFSGSGSGTDFTLTISSLQAEDVAVYFCHQAYRSPWTFGQGTKLEIKRTVAAPSVFIFPPSDEQLKSGTASVVCLLNNFYPREAKVQWKVDNALQSGNSQESVTEQDSKDSTYSLSSTLTLSKADYEKHKVYACEVTHQGLSSPVTKSFNRGECSGGGSGGGSEGGGSEGGGSEGGGSEGGGSGGGSGEVQLVESGGGLVKPGGSLRLSCAASGFTFSSYHMSWVRQAPGKGLELVSAINSNGINTYYLDTVKGRFTISRDNAKNSLYLQMNSLRAEDTAVYYCARHEDYYGFAMDYWGQGTLVTVSSASTKGPSVFPLAPCSRSTSESTAALGCLVKDYFPEPVTVSWNSGALTSGVHTFPAVLQSSGLYSLSSVVTVPSSSLGTKTYTCNVDHKPSNTKVDKRVESKYGPPCPPCPAPEFLGGPSVFLFPPKPKDTLMISRTPEVTCVVVDVSQEDPEVQFNWYVDGVEVHNAKTKPREEQFNSTYRVVSVLTVLHQDWLNGKEYKCKVSNKGLPSSIEKTISKAKGQPREPQVCTLPPSQEEMTKNQVSLSCAVKGFYPSDIAVEWESNGQPENNYKTTPPVLDSDGSFFLVSRLTVDKSRWQEGNVFSCSVMHEALHNRFTQKSLSLSLGK
notes: Two-chain scFab/scFab knob-into-hole format, IgG4 Fc
B2: bispecific antibody JS-1 (IgG4) (bispecific antibody)
heavy: QVQLVQSGAEVKKPGASVKVSCKTSGYAFTEYTMHWVRQAPGKGLEWMGGINPNTGGTTYNQKFQGRVTLTVDKSSSTAYMELSSLRSEDTVVYYCAKLLRLMYYFDYWGQGTLVTVSSASTKGPSVFPLAPCSRSTSESTAALGCLVKDYFPEPVTVSWNSGALTSGVHTFPAVLQSSGLYSLSSVVTVPSSSLGTKTYTCNVDHKPSNTKVDKRVESKYGPPCPPCPAPEFLGGPSVFLFPPKPKDTLMISRTPEVTCVVVDVSQEDPEVQFNWYVDGVEVHNAKTKPREEQFNSTYRVVSVLTVLHQDWLNGKEYKCKVSNKGLPSSIEKTISKAKGQPREPQVYTLPPCQEEMTKNQVSLWCLVKGFYPSDIAVEWESNGQPENNYKTTPPVLDSDGSFFLYSRLTVDKSRWQEGNVFSCSVMHEALHNHYTQKSLSLSLGK
light: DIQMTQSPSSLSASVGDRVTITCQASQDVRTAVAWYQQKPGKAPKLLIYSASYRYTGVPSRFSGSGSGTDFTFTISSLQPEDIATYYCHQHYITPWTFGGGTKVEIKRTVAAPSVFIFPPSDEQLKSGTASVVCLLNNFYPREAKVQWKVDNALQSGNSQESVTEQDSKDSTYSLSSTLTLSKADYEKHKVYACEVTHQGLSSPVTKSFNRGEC
chain: DIVMTQSPDSLAVSLGERATINCKASQSVSNDVAWYQQKPGQPPKLLIYYVSHRFTGVPDRFSGSGSGTDFTLTISSLQAEDVAVYFCHQAYRSPWTFGCGTKLEIKGGGGSGGGGSGGGGSGGGGSEVQLVESGGGLVKPGGSLRLSCAASGFTFSSYHMSWVRQAPGKCLELVSAINSNGINTYYLDTVKGRFTISRDNAKNSLYLQMNSLRAEDTAVYYCARHEDYYGFAMDYWGQGTLVTVSSGGGGSGGGGSESKYGPPCPPCPAPEFLGGPSVFLFPPKPKDTLMISRTPEVTCVVVDVSQEDPEVQFNWYVDGVEVHNAKTKPREEQFNSTYRVVSVLTVLHQDWLNGKEYKCKVSNKGLPSSIEKTISKAKGQPREPQVCTLPPSQEEMTKNQVSLSCAVKGFYPSDIAVEWESNGQPENNYKTTPPVLDSDGSFFLVSRLTVDKSRWQEGNVFSCSVMHEALHNRFTQKSLSLSLGK
notes: Three-chain knob-into-hole format: anti-TIGIT Fab arm and anti-CD112R scFv arm, IgG4 Fc

Key:
[1] = target: T1, recombinant human HX1 hCD112R Fc; assay: ELISA, relative binding activity, sample kept at 40 C for 4 weeks
Description: (§1) The antibody samples were exchanged into a pH 5.5 buffer system (20 mM histidine-histidine hydrochloride buffer, 230 mM trehalose) with the concentration of the samples controlled at about 5 mg/mL, and the buffer was aliquoted into vials at 500 μL/vial. The vials were placed in a 40° C. incubator to test stability at 0 W, 2 W and 4 W. Samples were sent for analysis according to Table 2. Stability was assessed by the following parameters: (a) the content of antibody monomers, aggregates or fragments determined by SEC-HPLC (size exclusion chromatography); (b) the molecular weight of the antibody determined by CE-SDS (sodium dodecyl sulfate capillary electrophoresis); and (c) the bioactivity of the antibody determined by an ELISA or reporter gene assay.

[2] = target: T2, recombinant human TIGIT (His Tag); assay: as above
Description: as §1

[3] = target: T1, recombinant human HX1 hCD112R Fc; assay: ELISA, plate coated with recombinant human HX1 hCD112R Fc, detection with HRP anti-human IgG4 Fc; unit taken from the concentration axis [3a]
Description: 2. Procedures [0255] a. A 96-well plate was coated with 1.0 μg/mL recombinant human HX1 hCD112R Fc (Suzhou Junmeng) as the antigen at 100 μL/well and incubated at 37° C. for 1.5 h. [0256] b. The plate was washed 4 times with 300 μL/well 1×PBST, and 2% BSA was added at 200 μL/well. The plate was blocked at 37° C. for 1.5 h. [0257] c. The plate was washed 4 times with 300 μL/well 1×PBST, and serial dilutions of the bispecific antibodies JS-1,3,5,9 and a negative control: antibody (anti-KLH hIgG4) (initial concentration 3.0 μg/mL, 3-fold serially diluted to 12 concentration points, 100 μL/well) were added. The plate was incubated at 37° C. for 1 h. [0258] d. The plate was washed 4 times with 300 μL/well 1×PBST. [0259] e. 5000-fold diluted horseradish peroxidase (HRP)-conjugated mouse anti-human IgG4 Fc antibody (Southern Biotech, 9200-05) was added at 100 μL/well, and the plate was incubated at 37° C. for 1 h. [0260] f. The plate was washed 4 times with 300 μL/well 1×PBST. [0261] g. 0.1 mg/mL TMB was added at 100 μL/well, and after the plate was incubated at 37° C. for 15 min, a 2 M solution of hydrochloric acid was added at 100 μL/well to stop the reactions. […] The absorbance was measured at 450 nm/620 nm on a microplate reader, and data were analyzed using Graphpad Prism7.

Binder | CD112R binding activity Elisa (%) [1] | TIGIT binding activity Elisa (%) [2] | EC50 [3]
B1 | 88% | 84% | 4.02 ng/mL
B2 | 86% | 97% | 4.03 ng/mL
